Assay results taken from article PMC6007958, “Identification, characterization and application of a new peptide against anterior gradient homolog 2 (AGR2)” (Oncotarget, 2018).
Numbering of substitutions follows the chain as printed. In names and notes the source's numbering stands. No end group written: not given here. *: point of attachment. Biotin = O=C1N[C@H]2[C@H](CS[C@H]2CCCCC(=O)*)N1

T1: AGR2 (Homo sapiens, UniProt O95994)
T1 construct: histidine tag (N, cleaved yes); made in house; host or cells: E. coli BL21 de3
T1 sequence (O95994 with tags, fused parts or gaps): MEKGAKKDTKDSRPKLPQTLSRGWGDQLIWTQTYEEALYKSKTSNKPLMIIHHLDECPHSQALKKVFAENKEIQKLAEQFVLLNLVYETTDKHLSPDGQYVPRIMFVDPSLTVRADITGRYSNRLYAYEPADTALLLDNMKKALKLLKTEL

T2: H10 peptide (biotin-…)
T2 chain: GGGSGMKMQVRIYLV

T3: extracellular AGR2 (eAGR2) in spent media of cancer cell lines (human (endogenous in MCF-7 and 22Rv1), UniProt O95994 21-175)
T3 sequence (looked up): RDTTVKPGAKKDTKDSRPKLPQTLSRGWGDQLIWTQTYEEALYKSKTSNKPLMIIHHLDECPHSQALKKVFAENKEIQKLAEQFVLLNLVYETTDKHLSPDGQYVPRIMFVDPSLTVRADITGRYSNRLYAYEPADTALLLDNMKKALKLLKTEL

B1: Δ27 AGR2 (recombinant anterior gradient protein 2 without the ER leader sequence), O95994 E96K (protein)
chain: GAKKDTKDSRPKLPQTLSRGWGDQLIWTQTYEEALYKSKTSNKPLMIIHHLDECPHSQALKKVFAENKKIQKLAEQFVLLNLVYETTDKHLSPDGQYVPRIMFVDPSLTVRADITGRYSNRLYAYEPADTALLLDNMKKALKLLKTELGLNDIFEAQKIEWHE
B2: Δ27 AGR2 (recombinant anterior gradient protein 2 without the ER leader sequence), O95994 E60Q (protein)
chain: B1 chain with E33Q, K69E
B3: H10 peptide (biotin-GGGSGMKMQVRIYLV) (peptide)
peptide: Biotin-GGGSGMKMQVRIYLV

What was measured:
MDA-MB-231 = test: Luminescent cytotoxicity (ATP viability, CellTiter-Glo) assay; type: cell-based; details: MDA-MB-231, 48 hours, eight concentrations, 4PL fit, read-out: IC50, cell viability
Experimental: (§1) Cells were seeded into 96-well White with Clear Flat Bottom plates (Costar). Cell density was optimized for each cell type, PC-3 and MDA-MB-231 were seeded at 0.24×10^6 cells/mL or 0.06×10^6 cells/mL. After 12 hours, treatments were added, with the stock concentration for Taxol at 400 nM (Selleckchem), H10 peptide was 200 μg/mL and the control peptide was 200 μg/mL. We tested a total of eight concentrations using three-fold serial dilutions from the stock concentration. After 48 hours of treatment, we used the CellTiter-Glo Luminescent Cell Viability Assay (Promega) according to the manufacturer's protocol. The data was analyzed on Prism software using “log(inhibitor) vs. response” option. IC50 was calculated using the 4PL equation 1 as above.

PC-3 = test: as above; type: cell-based; details: PC-3, 48 hours, eight concentrations, 4PL fit, read-out: IC50, cell viability
Experimental: as §1

MDA-MB-231 cells = test: Oris exclusion zone cell migration assay; type: cell-based; details: MDA-MB-231, 48 hours; H10 5 μmoles/L (10 μg/ml), taxol 5 nM, control peptide 10 μg/ml
Experimental: (§2) Cells were seeded into Oris™ 96-well plate with silicon stoppers in place (CMA1.101). Cell density was optimized for each cell type, PC-3 and MDA-MB-231 were seeded at 2.5×10^5 cells/mL or 6×10^4 cells/mL. Stoppers were removed 12 hours post seeding according to the manufacturer's protocol and treatments were added, Taxol (5 nM) (Selleckchem), H10 peptide (10 μg/ml), scrambled peptide (10 μg/ml), mouse anti-AGR2 antibody (1:50 of 2 μg/ml) (Santa Cruz Biotechnology), mouse-IgG (Santa Cruz Biotechnology), DMSO as control. After 48 hours, growth medium was aspirated and cells were fixed with 4% paraformaldehyde (Alfa Aesar) for 15 minutes at RT and washed with PBS. Cells were stained with Rhodamine phalloidin (Biotium) 1:40 and Hoechst (Invitrogen) 1:10,000 for 20 minutes at RT and washed with PBS.
(§3) Imaging was performed on a Zeiss Observer.Z1 microscope at 2.5x objective with AxioCam MRm camera and Axio Vision 4.8 software. Images were processed using ImageJ software package ( http://rsb.info.nih.gov/ij/) and following the cell migration method previously designed. The data was analyzed using GraphPad Prism 7.

AGR2 = target: T1, AGR2; test: SPR competition, AGR2 binding to immobilized H10 in presence of free peptide; details: peptide 500 nM co-/pre-incubated with AGR2 500 nM
Experimental: SPR measurements were carried out on a Biacore T200 (GE) and data was analyzed using Biacore T200 Evaluation Software (version 1.0). Data was analyzed for a 1:1, two-stage and bivalent binding model. Average affinities were obtained from independent experimental repeats and errors are given as mean absolute deviations. Measurements were carried out at flow rates of 20 μL/min and confirmed experimentally to avoid mass transfer limitation. For direct binding studies of AGR2 to biotinylated H10-peptide a carboxymethyl-Dextran coated CM5 chip was coated with Streptavidin using standard amine coupling chemistry. Residual activated carboxyl groups were blocked with 1,2-Ethylenediamine. In contrast to conventional ethanolamine blocking, this procedure introduces positive charges to partially compensate the negative surface charge and reduce unspecific binding by AGR2. Biotinylated peptide was loaded and remaining free biotin sites were blocked by incubating the chip in biotin containing buffer over night to allow for biotinylated peptides to be used in competition assays. Optimal binding and minimal unspecific interaction was found for a running buffer consisting of Tris (100 mM, pH 7.5), NaCl (150 mM) and MgCl2 (10 mM).

PC-3 cells = test: Oris exclusion zone cell migration assay; type: cell-based; details: PC-3, 48 hours; taxol 5 nM, H10 10 μg/ml, control peptide 10 μg/ml, AGR2 antibody; fluorescent microscopy of cell-free zone
Experimental: as §2, §3

[1] = tested on: EGFR phosphorylation in PC3 cells; test: Western blot of EGFR / p-EGFR-Y1068; type: cell-based; details: PC3 cells dosed 16 hours, p-EGFR-Y1068 by western blot
Experimental: We sought to ascertain a potential mechanism leading to decreased viability of cells upon exposure to H10 by examining cancer related pathways that have been linked with AGR2. […] We investigated the impact of H10 on EGFR phosphorylation as a possible mechanism of action. PC3 cells were dosed with H10 for 16 hours and the levels of EGFR and p-EGFR-Y1068 were analyzed by western blot (Figure 5C). […] Since amphiregulin is downstream of the HIPPO pathway, we also assessed the phosphorylation of the HIPPO effector, YAP1. We hypothesized that H10 may indirectly downregulate EGFR phosphorylation by altering activity of YAP1 (phosphorylation of YAP1 prevents […] translocation to the nucleus and transcription of amphiregulin [24]). Cell lysates from PC3 cells treated with H10 and the scrambled peptide were subject to immunoblot (Figure 5C).

H10 peptide (biotin-…) = target: T2, H10 peptide (biotin-…); test: ELISA; details: chain shown with the change, read off a plot
[2] = target: T3, extracellular AGR2 (eAGR2) in spent …; test: cell-based or functional assay
[3] = AGR2 100 ng/ml, parent: est. 61
[4] = AGR2 200 ng/ml, parent: est. 76
[5] = AGR2 400 ng/ml, parent: est. 82
[6] = AGR2 600 ng/ml, parent: est. 83
[7] = AGR2 800 ng/ml, parent: est. 91

Molecule | response (H10 peptide (biotin-…); [3]) | response (H10 peptide (biotin-…); [4]) | response (H10 peptide (biotin-…); [5]) | response (H10 peptide (biotin-…); [6]) | response (H10 peptide (biotin-…); [7]) | also measured
Biotin-GSGSGSGSGSGSGSS [control peptide, biotinylated Gly/Ser control peptide, length 15] | – | – | – | – | – | IC50 (MDA-MB-231): > 100 µM; IC50 (PC-3): > 100 µM; inhibition of cell migration (MDA-MB-231 cells): did not alter cell migration; suppression of AGR2 binding to immobilized H10 by free peptide (AGR2): largely ineffective
CC(=O)O[C@H]1C(=O)[C@@]2(C)[C@H]([C@H](OC(=O)c3ccccc3)[C@]3(O)C[C@H](OC(=O)[C@H](O)[C@@H](NC(=O)c4ccccc4)c4ccccc4)C(C)=C1C3(C)C)[C@]1(OC(C)=O)CO[C@@H]1C[C@@H]2O [taxol] | – | – | – | – | – | inhibition of cell migration (PC-3 cells): inhibits cell migration of PC-3 cells
GGGSG VMLKYMIQRV [scrambled peptide] | – | – | – | – | – | concentration sufficient to downregulate EGFR phosphorylation [1]: > 20 µM
B1 | 30 % of binding | 27 % of binding | 30 % of binding | 36 % of binding | 55 % of binding | –
B2 | 42 % of binding | 42 % of binding | 46 % of binding | 51 % of binding | 57 % of binding | –
B3 | – | – | – | – | – | ATP viability assay (CellTiter-Glo), MDA-MB-231 cells, 48 hours, IC50 of H10 [2]: 12 µM; ATP viability assay (CellTiter-Glo), PC-3 cells, 48 hours, IC50 of H10 [2]: 9 µM
